According to US8501695B2, “Tissue kallikrein for the treatment of diseases associated with amyloid protein” (DiaMedica, Inc., priority 2007, dated 2013):
Several values for one entry are separate records, joined by “and”; a condition that tells them apart may be missing. Equal entries are not always repeated.

Test: Pharmacokinetic study of intranasal tissue kallikrein (125I-KLK1 tissue concentrations by gamma counting)
Type: in vivo
Conditions: rat, 30 min. end point
Method: The purpose of this study was to quantify the amount of tissue kallikrein (KLK1) reaching the central nervous system and peripheral tissues after intranasal administration to anesthetized rats. At 30 min after KLK1 administration, animals were transcardially perfused with ice-cold saline followed by paraformaldehyde fixative and tissues were dissected. The amount of radiolabeled KLK1 in each tissue sample was quantified by gamma counting and tissue concentrations were calculated using tissue weight and gamma counting of standards of the dosing solutions
Adult male Sprague Dawley rats (n=10, mean 335.4 g±4.57 g SE) were used for this study. Animals were group housed in the Regions Hospital Animal Care Facility with free access to food and water. Animals were kept on a 12 h light cycle. All experimental procedures were approved by the Animal Care and Use Committee at Regions Hospital under IACUC protocol number 08-022.
Tissue kallikrein was sent to Perkin-Elmer for ^125I-labelling (Quote NEX-084, lot C1541583). Non-labeled KLK1 from Sigma (cat#K3627-1KU, lot 018K1441) was also used. Non-labeled KLK1 was dissolved in 1×PBS (10×PBS, Sigma, cat #P5493, lot 027K8405 diluted in sterile water). The average dose was 48.1 μL, 75 μCi, and 2.6 mg.
• a. Prior to anesthesia, each rat was weighed. • b. An anesthesia cocktail was prepared and full, half, and quarter anesthesia doses were calculated according to the animal's weight with a full dose containing 30 mg/kg ketamine, 6 mg/kg xylazine, and 1 mg/kg acepromazine. • c. A 1-cc syringe fitted with a 25 G or 27 G, ½ inch needle was assembled and a full dose was drawn into the syringe for injection. • d. Rats were restrained in a towel as follows. Rats were placed ventral side down in the middle of a hand towel. The towel was then wrapped around the head and shoulders to restrain. Wrapped animals remained ventral side down while the left hind leg was located. • e. The left hind leg was drawn to the side and the needle was inserted just beneath the skin (subcutaneous) above the thigh. After ensuring that the needle was placed subcutaneously (and not intramuscularly), full doses were injected. Rats were placed in holding cages and the injection time noted. Animals should be under within 5 min. • f. Anesthesia was monitored throughout the procedures by assessing reflexes using pinching of the hind paw or tail. If a reflex was present, a half or quarter dose booster was administered as necessary. • g. During drug administration, animals received a half dose booster roughly 20-25 min after initial dose. Intranasal Delivery of ^125I-KLK1 • a. Anesthetized rats were placed on their backs on a heating pad in a metal surgical tray. The heating pad was connected to a thermostat and was automatically regulated to maintain a 37° C. temperature based on continuous measurement from a rectal probe. • b. A 2″×2″ gauze pad was rolled tightly into a pillow, taped together, and under the neck to maintain a correct neck position horizontal with the counter. • c. A lead impregnated shield was placed between the surgical tray and the experimenter for protection against radiation. The dose solution, pipette, pipette tips, and waste receptacle were arranged behind the shield for easy access. • d. A 6 μL drop was loaded into the pipette behind the shield. • e. A cotton swab covered in parafilm was used to occlude one naris completely (the flat part of the swab was pushed gently against the naris to prevent airflow), while the 6 μL drop was expelled slowly from the pipette (held at a 45° angle from the rat's midline), forming a drop on the pipette tip. The drop was lowered onto the open naris to be inhaled. • f. After two minutes, the alternate naris was occluded and a 6 μL drop was administered in the same fashion. • g. A drop was administered as described above every two minutes to alternating nares until a total of 8 drops was delivered (4 to each naris) over 14 min. • h. […]

[1] = individual animal, listed as kallikrien

B1: tissue kallikrein: serine protease that cleaves kininogen into kallidin; polypeptide SEQ ID NO:1 (Sus scrofa kallikrein 1), KLK1 from Sigma (protein, listed as Sus scrofa)
chain: MWSLVMRLALSLAGTGAAPPIQSRIIGGRECEKDSHPWQVAIYHYSSFQCGGVLVDPKWVLTAAHCKNDNYQVWLGRHNLFENEVTAQFFGVTADFPHPGFNLSLLKNHTKADGKDYSHDLMLLRLQSPAKITDAVKVLELPTQEPELGSTCQASGWGSIEPGPDDFEFPDEIQCVELTLLQNTFCADAHPDKVTESMLCAGYLPGGKDTCMGDSGGPLICNGMWQGITSWGHTPCGSANKPSIYTKLIFYLDWINDTITENP
modifications: 125I label in one form
- concentration in Ventral Dura (Avg, outliers removed): 143.0 nM
- concentration in Amygdala [1]: 13.5 nM and 10.9 nM and 14.16 nM and 18.3 nM and 12.1 nM and 25.4 nM and 15.2 nM and 13.9 nM and 24.6 nM and 13.7 nM
- concentration in Anterior Olfactory Nucleus [1]: 23.1 nM and 15.1 nM and 24.0 nM and 20.5 nM and 19.3 nM and 44.8 nM and 29.2 nM and 25.2 nM and 45.6 nM and 21.2 nM
- concentration in Anterior Trigeminal Nerve [1]: 233.5 nM and 75.1 nM and 83.9 nM and 83.5 nM and 108.3 nM and 68.8 nM and 111.7 nM and 139.2 nM and 77.5 nM
- concentration in Axillary Nodes (2) [1]: 44.6 nM and 38.9 nM and 58.8 nM and 44.4 nM and 43.9 nM and 48.8 nM and 28.6 nM and 33.5 nM and 47.7 nM and 34.0 nM
- concentration in Blood Sample [1]: 292.4 nM and 272.4 nM and 327.7 nM and 288.9 nM and 275.6 nM and 231.1 nM and 233.0 nM and 251.9 nM and 242.4 nM and 268.4 nM
- concentration in Carotid Artery [1]: 127.5 nM and 55.9 nM and 111.2 nM and 103.2 nM and 138.7 nM and 175.1 nM and 84.9 nM and 115.6 nM and 108.2 nM
- concentration in Cerebellum [1]: 9.3 nM and 10.6 nM and 10.06 nM and 13.2 nM and 11.2 nM and 12.2 nM and 8.6 nM and 14.7 nM and 7.8 nM
- concentration in Cervical Nodes (2) [1]: 214.4 nM and 3.1 nM and 116.3 nM and 72.1 nM and 100.5 nM and 119.9 nM and 103.7 nM and 196.0 nM and 174.6 nM
- concentration in Circle of Willis & Basilar Artery [1]: 190.7 nM and 56.9 nM and 44.4 nM and 133.6 nM and 87.4 nM and 178.2 nM and 115.5 nM and 44.1 nM and 134.1 nM and 48.3 nM
- concentration in Dorsal Dura [1]: 116.0 nM and 92.5 nM and 118.2 nM and 156.9 nM and 116.8 nM and 131.0 nM and 132.9 nM and 242.5 nM and 89.5 nM
- concentration in Esophagus [1]: 118.0 nM and 66.9 nM and 109.6 nM and 87.7 nM and 68.1 nM and 40.9 nM and 65.1 nM and 85.4 nM and 128.1 nM and 82.4 nM
- concentration in Extra Cortex [1]: 10.3 nM and 11.3 nM and 12.40 nM and 13.3 nM and 13.8 nM and 17.2 nM and 12.8 nM and 16.6 nM and 9.8 nM
- concentration in Extra Slice #1 [1]: 17.1 nM and 16.2 nM and 19.4 nM and 16.6 nM and 16.9 nM and 43.2 nM and 31.1 nM and 29.6 nM and 22.7 nM
- concentration in Extra Slice #2 [1]: 9.2 nM and 11.0 nM and 12.33 nM and 17.0 nM and 11.7 nM and 28.5 nM and 17.6 nM and 17.3 nM and 27.0 nM and 15.6 nM
- concentration in Extra Slice #3 [1]: 8.8 nM and 9.6 nM and 11.43 nM and 10.7 nM and 9.9 nM and 23.3 nM and 17.2 nM and 13.6 nM and 21.0 nM and 13.8 nM
- concentration in Extra Slice #4 [1]: 7.5 nM and 8.6 nM and 9.4 nM and 9.9 nM and 18.4 nM and 14.7 nM and 10.5 nM and 17.0 nM and 11.8 nM
- concentration in Extra Slice #5 [1]: 7.7 nM and 7.6 nM and 10.7 nM and 9.2 nM and 10.8 nM and 19.2 nM and 18.6 nM and 9.7 nM and 14.8 nM and 9.9 nM
- concentration in Extra Slice #6 [1]: 7.9 nM and 8.1 nM and 12.1 nM and 10.5 nM and 12.2 nM and 16.7 nM and 10.4 nM and 14.8 nM and 9.5 nM
- concentration in Frontal Cortex [1]: 12.0 nM and 16.1 nM and 15.8 nM and 16.9 nM and 17.4 nM and 45.7 nM and 27.7 nM and 26.8 nM and 38.9 nM and 22.0 nM
- concentration in Heart [1]: 17.4 nM and 16.0 nM and 21.9 nM and 30.1 nM and 12.7 nM and 31.4 nM and 13.7 nM and 23.2 nM and 22.8 nM and 37.0 nM
- concentration in Hippocampus [1]: 7.0 nM (2×) and 11.6 nM and 10.6 nM and 8.8 nM and 16.4 nM and 13.4 nM and 13.7 nM and 8.2 nM
- concentration in Hypothalamus [1]: 17.1 nM and 11.9 nM and 21.1 nM and 15.8 nM and 17.4 nM and 37.6 nM and 28.8 nM and 15.7 nM and 38.9 nM and 17.3 nM
- concentration in Kidney (L, tip) [1]: 179.0 nM and 213.3 nM and 187.5 nM and 115.0 nM and 24.6 nM and 35.5 nM and 103.9 nM and 240.4 nM and 212.2 nM and 36.9 nM
- concentration in Liver (R, superficial lobe) [1]: 18.7 nM and 37.1 nM and 25.7 nM and 26.6 nM and 40.2 nM and 26.1 nM and 16.4 nM and 16.1 nM and 21.8 nM and 28.8 nM
- concentration in Lower Cervical Spinal Cord [1]: 5.3 nM and 6.6 nM and 7.3 nM (2×) and 5.2 nM and 4.7 nM and 7.0 nM and 6.5 nM and 10.1 nM and 10.9 nM
- concentration in Lumbar Spinal Cord [1]: 5.1 nM and 4.9 nM and 5.8 nM and 4.7 nM and 5.0 nM and 5.35 nM and 4.2 nM (2×) and 5.6 nM and 4.6 nM
